In patent publication EP1977765A1, “Peptide prodrugs” (Diatos, priority 2007, dated 2008):
Like-named read-outs stand apart in the source and are kept apart here.

Legend:
[1] = system: HCT 116 colon cancer cell line; assay: In vitro cytotoxicity, WST-1 viability test; format: cell-based; settings: mean of 3 independent experiments
Method: The cytotoxicity of different drug conjugates was evaluated using the HCT 116 colon cancer cell line and was compared to the cytotoxicity of the free drug (doxorubicin, mitomycin C or paclitaxel). Cells were seeded at 8 000 cells/well and maintained in Mc Coy medium supplemented with 10% fetal bovine serum for 24 hours before treatment. Cells were incubated with increasing concentrations of drugs or conjugates at 37°C, 5% CO2. The medium was then removed and a WST-1 test (purchased from Roche) was performed according to the manufacturer's instructions. The cytotoxicity of the tested conjugates was expressed as the molar concentration inhibiting 50% of the cell viability (IC50), calculated using Graph Pad Prism 3.02 software. Experimental data are presented as the mean of three independent experiments performed in duplicate.
Table 1: Drug concentration that inhibits 50% of cell viability (IC50) using the HCT 116 cell line. Data represent the mean value of 3 independent experiments. After the indicated exposure time at 37°C, cells were rinsed and a viability assay (WST1 test) was performed to determine IC50.

[2] = In vitro human plasma stability of drug conjugates (HPLC); format: in vitro ADME; settings: for remaining at 6 h, 100 µM: 100 µM paclitaxel conjugates, read-out: plasma stability (% conjugate)
Method: Human plasma (citrated human blood was centrifuged at 600 g for 10 min at +4°C, plasma was recovered and aliquots stored at -20°C) was used to assess the stability of the following drug conjugates: Suc-ALAL-doxorubicin, Suc-βALAL-doxorubicin, TA-ALAL-doxorubicin, Suc-βALAL-MMC, TA-ALAL-MMC, Suc-βALAL-paclitaxel and TA-ALAL-paclitaxel. The drug conjugates (50 µM doxorubicin or MMC, 100 µM paclitaxel conjugates) were incubated at 37°C with human plasma either for 0, 2 or 6 hours, 50 µL of sample were collected at each time point and extraction was performed immediately.
For the doxorubicin conjugate and metabolites, 150 µL of acetonitrile was added to the 50 µL samples. Samples were vortexed and centrifuged for 10 min at 13 000 rpm at room temperature. 100 µL were harvested and 200 µL of 2% ammonium formate pH 4.0 were added before centrifugation (10 min at 13 000 rpm). HPLC analysis (at 560 nm) was performed using the supernatant.
For MMC conjugate and metabolites were extracted prior to HPLC analysis. 100 µL of acetonitrile was added to the 50 µL of sample, prior to vortexing (10 seconds) and centrifugation (10 min at 13 000 rpm) at room temperature. 50 µL of supernatant was recovered and mixed with 150 µL of Phosphate Buffer Saline (PBS) 1X. After centrifugation (10 min at 13 000 rpm), 150 µL of supernatant were collected for HPLC analysis. Stability and reactivation were evaluated by HPLC analysis (at 270 nm) and MMC conjugate and metabolite peak areas were compared.
For the paclitaxel conjugate and metabolites, 150 µL of acetonitrile was added to 50 µL of sample, vortexed and centrifuged for 10 min at 13 000 rpm at room temperature. 100 µL of supernatant was recovered and mixed with 100 µL of water. After centrifugation (10 min at 13 000 rpm), the supernatant was collected for HPLC analysis (at 230 nm).

[3] = In vivo toxicity of doxorubicin conjugates in LS 174T tumor-bearing nude mice (i.v.); settings: for equitoxic dose: i.v.
Method: Toxicity studies were conducted in LS 174T tumor-bearing nude mice following intravenous administration. […] LS 174T tumors were established by a subcutaneous implantation of cells (3 x 10^7 cells injected) in the right flank of 7 weeks old female NMRI nude mice (Janvier, France). The day of the first injection, animals were randomly assigned to groups of 6 animals. The TA-ALAL-doxorubicin and Suc-ALAL-doxorubicin conjugates were dissolved in saline and Suc-βALAL-doxorubicin was prepared in glucose 5%. All conjugates were delivered by bolus intravenous injection (i.v.) in the lateral tail vein at 10 µL/g. During the course of the experiment, clinical signs and body weight were controlled at least twice a week. The experiment was repeated twice. Table 2: In vivo toxicity of TA-ALAL-doxorubicin conjugate compared to Suc-βALAL-doxorubicin and Suc-ALAL-doxorubicin in LS 174T tumor-bearing mice.

LS 174T tumors [4] = assay: In vivo anti-tumoral efficacy of doxorubicin conjugates in the LS 174T tumor model; set-up: species or system NMRI nude mice
Description: (§1) Treatments were initiated when the tumors had reached a size of 100 mm^3 (calculated using the following formula: [length x width^2]/2). […] During the course of the experiment, clinical signs, body weight and tumor volume were controlled twice a week. Results are presented as the evolution of mean tumor volume as a function of time. Optimal T/C (ratio of mean tumor volume of treated versus control mice) values were used as a measure of treatment efficacy. The optimal T/C% reflects the maximal tumor growth inhibition achieved. The experiment was repeated twice.

LS 174T tumors [5] = assay: In vivo anti-tumoral efficacy of mitomycin C conjugates in the LS 174T tumor model; set-up: species or system NMRI nude mice
Description: as §1
The in vivo anti-tumoral efficacy of TA-ALAL-MMC was compared to that of Suc-βALAL-MMC in the LS 174T tumor model. The establishment of the LS 174T tumors and the treatments were carried out as previously described in Example V. TA-ALAL-MMC conjugate was dissolved in saline and Suc-βALAL-MMC conjugate was prepared in 3% DMSO in Sodium phosphate buffer (15mM). […] During the course of the experiment, clinical signs, body weight and tumor volume were controlled twice a week. The experiment was repeated twice. Table 4: Anti-tumoral efficacy of TA-ALAL-MMC compared to Suc-βALAL-MMC in the LS 174T tumor model.

[6] = Experiment 1, dose 67.7 µmol/kg i.v., LS 174T tumor-bearing mice
[7] = Experiment 2, dose 77.4 µmol/kg i.v.
[8] = Experiment 2, LS 174T tumor-bearing mice
[9] = Experiment 1, dose 67.7 µmol/kg i.v.
[10] = Experiment 1, dose 67.7 µmol/kg i.v., groups of 6 animals
[11] = after 6 hours in human plasma at 37°C
[12] = Experiment 1, dose 60 µmol/kg i.v.
[13] = Experiment 2, dose 80 µmol/kg i.v.

Q: For `COc1cccc2c1C(=O)c1c(O)c3c(c(O)c1C2=O)CC(O)(C(=O)CO)CC3OC1CC(NC(=O)C(CC(C)C)NC(=O)C(C)NC(=O)C(CC(C)C)NC(=O)C(C)NC(=O)C2C(C(=O)O)C(C(=O)O)C2C(=O)O)C(O)C(C)O1` (centres unmarked) [TA-ALAL-dox, TetraAcid-ALAL-doxorubicin], which IC50 ([1]; incubation time 48 h) is on record?
A: The IC50 was > 10 µM.

Q: And the remaining at 2 h, 50 µM ([2]; after 2 hours in human plasma at 37°C, 50 µM doxorubicin conjugates, read-out: percentage of intact conjugate)?
A: The remaining at 2 h, 50 µM was 83%.

Q: And the remaining at 6 h, 50 µM ([2]; after 6 hours in human plasma at 37°C, 50 µM doxorubicin conjugates, read-out: percentage of intact conjugate)?
A: The remaining at 6 h, 50 µM was 67%.

Q: And the “Maximal body weight loss %” value [3, 6]?
A: Its value is 13.7%.

Q: What about the “Maximal body weight loss %” value ([3]; Experiment 2, dose 55.1 µmol/kg i.v.) of the same compound?
A: Its value is 11.3%.

Q: And the “Maximal body weight loss %” value [3, 7]?
A: Its value is 17.9%.

Q: And the equitoxic dose [3, 8]?
A: Its equitoxic dose is 77.4 µmol/kg.

Q: And the “Optimal T/C (%)” value (LS 174T tumors [4]; [9])?
A: Its value is 42%.

Q: And the “Optimal T/C (%)” value (LS 174T tumors [4]; [7])?
A: Its value is 36%.

Q: What does the source list for `COc1cccc2c1C(=O)c1c(O)c3c(c(O)c1C2=O)CC(O)(C(=O)CO)CC3OC1CC(NC(=O)C(CC(C)C)NC(=O)C(C)NC(=O)C(CC(C)C)NC(=O)C(C)NC(=O)CCC(=O)O)C(O)C(C)O1` (centres unmarked) [Suc-ALAL-dox, Suc-ALAL-doxorubicin]?
A: IC50 ([1]; incubation time 48 h): 10 µM; remaining at 2 h, 50 µM ([2]; human, plasma): 80%; remaining at 6 h, 50 µM ([2]; human, plasma): 54%; Maximal body weight loss % [3, 6]: 36.1%; dead animals [3, 10]: 3; animals died (LS 174T tumors [4]; [10]): 3 animals died

Q: What does the source list for `COc1cccc2c1C(=O)c1c(O)c3c(c(O)c1C2=O)CC(O)(C(=O)CO)CC3OC1CC(NC(=O)C(CC(C)C)NC(=O)C(C)NC(=O)C(CC(C)C)NC(=O)CCNC(=O)CCC(=O)O)C(O)C(C)O1` (centres unmarked) [Suc-βALAL-dox, Suc-βALAL-doxorubicin]?
A: IC50 ([1]; incubation time 48 h): > 10 µM; remaining at 2 h, 50 µM ([2]; human, plasma): 77.2%; remaining at 6 h, 50 µM ([2]; human, plasma): 47.5%; equitoxic dose [3, 8]: 47.4 µmol/kg; Maximal body weight loss % ([3]; mouse, in vivo, iv): 15.9%; Optimal T/C (%) (LS 174T tumors [4]; [9]): 52%; Optimal T/C (%) (LS 174T tumors [4]; Experiment 2, dose 47.4 µmol/kg i.v.): 52%

Q: Which results are given for `CC(=O)O[C@H]1C(=O)[C@@]2(C)[C@H]([C@H](OC(=O)c3ccccc3)[C@]3(O)C[C@H](OC(=O)[C@H](OC(=O)C(CC(C)C)NC(=O)C(C)NC(=O)C(CC(C)C)NC(=O)C(C)NC(=O)C4C(C(=O)O)C(C(=O)O)C4C(=O)O)[C@@H](NC(=O)c4ccccc4)c4ccccc4)C(C)=C1C3(C)C)[C@]1(OC(C)=O)CO[C@@H]1C[C@@H]2O` (some centres unmarked) [TA-ALAL-paclitaxel, TetraAcid-ALAL-paclitaxel]?
A: IC50 ([1]; incubation time 4h + 72 h): 10 µM; remaining at 6 h, 100 µM [2, 11]: 43%

Q: For `CC(=O)O[C@H]1C(=O)[C@@]2(C)[C@H]([C@H](OC(=O)c3ccccc3)[C@]3(O)C[C@H](OC(=O)[C@H](O)[C@@H](NC(=O)c4ccccc4)c4ccccc4)C(C)=C1C3(C)C)[C@]1(OC(C)=O)CO[C@@H]1C[C@@H]2O` [paclitaxel], which IC50 ([1]; Homo sapiens, incubation time 4h + 72 h) is on record?
A: Its IC50 is 0.02 µM.

Q: With `CO[C@@]12[C@H](COC(N)=O)C3=C(C(=O)C(C)=C(N)C3=O)N1C[C@@H]1N[C@@H]12` [Mitomycin C (MMC), mitomycin C] as the compound, how does the IC50 ([1]; incubation time 24 h) read?
A: Its IC50 is 5 µM.

Q: With `COc1cccc2c1C(=O)c1c(O)c3c(c(O)c1C2=O)C[C@@](O)(C(=O)CO)C[C@@H]3O[C@H]1C[C@H](N)[C@H](O)[C@H](C)O1` [doxorubicin (dox), doxorubicin] as the compound, how does the IC50 ([1]; Homo sapiens, incubation time 48 h) read?
A: The IC50 was 0.034 µM.

Q: With Suc-βALAL-mitomycin C [Suc-βALAL-MMC] as the compound, how does the IC50 ([1]; incubation time 24 h) read?
A: The IC50 was 67 µM.

Q: What about the “% of conjugates remaining” value ([2]; after 6 hours in human plasma at 37°C, 50 µM MMC conjugates) of the same compound?
A: The value was 73%.

Q: What about the “Maximal body weight loss %” value (LS 174T tumors [5]; [12]) of the same compound?
A: Its value is 14.5%.

Q: And the “Optimal T/C (%)” value (LS 174T tumors [5]; [12])?
A: Its value is 48%.

Q: What about the “Maximal body weight loss %” value (LS 174T tumors [5]; [13]) of the same compound?
A: The value was 15.9%.

Q: And the “Optimal T/C (%)” value (LS 174T tumors [5]; [13])?
A: The value was 43%.

Q: Which IC50 ([1]; incubation time 4h + 72 h) does the source give for `CC(=O)O[C@H]1C(=O)[C@@]2(C)[C@H]([C@H](OC(=O)c3ccccc3)[C@]3(O)C[C@H](OC(=O)[C@H](OC(=O)C(CC(C)C)NC(=O)C(C)NC(=O)C(CC(C)C)NC(=O)CCNC(=O)CCC(=O)O)[C@@H](NC(=O)c4ccccc4)c4ccccc4)C(C)=C1C3(C)C)[C@]1(OC(C)=O)CO[C@@H]1C[C@@H]2O` (some centres unmarked) [Suc-βALAL-paclitaxel] here?
A: Its IC50 is 0.762 µM.

Q: And the remaining at 6 h, 100 µM [2, 11]?
A: The remaining at 6 h, 100 µM was 41%.
